Results: patent US4835253A, “Specific inhibitors of tissue kallikrein” (The University Hospital, priority 1987, dated 1989)

What was measured:
Assay type in all cases: biochemical, human
[1] = test system: T1, CC(=O)N1CCC[C@H]1C(=O)N[C@@H](Cc1ccccc1)C(=O)N[C@@H](CCCNC(=N)N)C(=O)N[C@@H](CO)C(=O)N[C@H](C(=O)N[C@@H](CCC(N)=O)C(N)=O)C(C)C; experiment: KM determination: hydrolysis of substrate analogues by HUK (HPLC, scintillation counting); details: other: hydrolysis by HUK, pH 9.0, 37 C, thirty minutes
T1 construct: Human urinary kallikrein (hereinafter "HUK") was highly purified using a modification of published methods; from tissue; host or cells: human urine
Protocol: (§1) Human urinary kallikrein (hereinafter "HUK") was highly purified using a modification of published methods that employ ultrafiltration, aprotinin-CH-sepharose affinity chromatography, and Sephadex G-100 gel filtration [ole-MoiYoi et al., Proc. Natl. Acad. Sci. USA 76: 3121-3125 (1979)]. […] The pH of each fraction was determined immediately upon elution, and the fraction was neutralized by addition of 2.0 ml of 2M Tris-HCL buffer (pH 8.0).
(§2) KM Determination: Hydrolysis of the substrate analogue inhibitors by HUK was measured by combining the test inhibitor at different concentrations on either side of the KM value with the enzyme at pH 9.0 for thirty minutes at 37 C. The cleavage products were separated from the starting material in the digest by HPLC on a Beckman octadecylsilane (ODS) column (1×25 cm) using a thirty minute gradient of from 0-70% CH3 CN in triethylammonium phosphate buffer (pH 7.0). The starting materials and reaction products were completely resolved under these conditions. Absorbance of the HPLC effluent was monitored at 220 nm. Individual fractions were collected and the amount of peptide degradation products was quantitated by counting in a liquid scintillation counter. Samples containing individual inhibitors were incubated without HUK and solvent blanks were also chromatographed and analyzed in the same way.
(§3) For test purposes, in these HUA cleavage studies, individual peptide sequences were synthesized, purified, and characterized as previously described herein. For these cleavage studies, doubly labelled peptides were prepared using [^3 H]-valine and […] respectively. In addition, 6.0N HCL-dioxane was used for removal of tert-butoxycarbonyl protecting groups and 90% hydrogen fluoride/10% anisole (volume/volume) for global deprotection on completion of the synthesis. After extraction and gel filtration on Sephadex G-15, final purification was completed by isocratic elution from a synchrom RP-P column (2.1×25 cm) with CH3 CN--H2 O (8 ml/min). The resultant peptides were deemed to be homogeneous by amino acid analysis; high performance liquid chromatography; thin layer chromatography; and A230 /A260 ratio analysis. […]

[2] = test system: T2, CC(=O)N[C@@H](CO)C(=O)N1CCC[C@H]1C(=O)N[C@@H](Cc1ccccc1)C(=O)N[C@@H](CCCNC(=N)N)C(=O)N[C@@H](CO)C(=O)N[C@H](C(=O)N[C@@H](CCC(N)=O)C(N)=O)C(C)C; experiment: as above; details: other: hydrolysis by HUK, pH 9.0, 37 C, thirty minutes
T2 construct: Human urinary kallikrein (hereinafter "HUK") was highly purified using a modification of published methods; from tissue; host or cells: human urine
Protocol: as §1, §2, §3

[3] = test system: T3, CC(=O)N[C@@H](Cc1ccccc1)C(=O)N[C@@H](CCCN=C(N)N)C(=O)N[C@@H](CO)C(=O)N[C@H](C(=O)N[C@@H](CCC(N)=O)C(N)=O)C(C)C; experiment: as above; details: other: hydrolysis by HUK, pH 9.0, 37 C, thirty minutes
T3 construct: Human urinary kallikrein (hereinafter "HUK") was highly purified using a modification of published methods; from tissue; host or cells: human urine
Protocol: as §1, §2, §3

[4] = test system: T4, CC[C@H](C)[C@H](N)C(=O)N[C@@H](CC1CCCCC1)C(=O)N[C@@H](CCCNC(=N)N)C(=O)Nc1ccc([N+](=O)[O-])cc1; experiment: Km and Vmax of tripeptide 4-nitroanilides with HUK; details: other: tripeptide 4-nitroanilide as HUK substrate; pH 9.0; 37.0 °C
T4 construct: Human urinary kallikrein (hereinafter "HUK") was highly purified using a modification of published methods; from tissue; host or cells: human urine
From the text: (§4) An evaluation of other possible peptide sequences and their potential effect as substrate analogue inhibitors specifically of tissue kallikrein was undertaken using chromogenic substrates comprising alternate series of tripeptide 4-nitroanilides using previously described methods [Amundsen et al., "Methods For The Determination Of Glandular Kallikrein By Means Of A Chromogenic Tripeptide Substrate," in Kinins-II. Part A. Plenum Press, 1979, pages 83-95]. This methodology relies on the capacity of HUK to cleave p-nitroaniline from specifically synthesized tripeptide 4-nitroanilines. Controls for this experimental series included S-2266 comprising D-Val-Leu-Arg-4NA; S-2444 comprising D-Glu-Gly-Arg-4NA; and S-2302 comprising D-Pro-Phe-Arg-4NA respectively. The 50% inhibitory concentration (IC50) values for each synthesized tripeptide 4-nitroanilide was determined at 37 C. at pH 9.0 using the specific kallikrein substrates S-2266 (Kabi, Helena Laboratories, Beaumont, Tex.). 4.0 nanograms (hereinafter "ng") of HUK were used in each sample. Blanks lacking S-2266 were run in parallel to correct for hydrolysis of all samples. In all cases, the amount of 4-nitroaniline generated from each tripeptide was less than 10% of that observed for the hydrolysis of S-2266.
(§5) Subsequently, the Km and Vmax for each test tripeptide 4-nitroanilide was determined using conventional techniques in an HP-8450 diode array spectrophotometer (Hewlett Packard Company) attached to a HP-85 microcomputer. The multicomponent assay program was modified to allow the simultaneous determination of the reaction velocity in four samples.

[5] = test system: T5, N=C(N)NCCC[C@H](NC(=O)[C@H](CC1CCCCC1)NC(=O)[C@@H](N)C1CCCCC1)C(=O)Nc1ccc([N+](=O)[O-])cc1; experiment: Km and Vmax of tripeptide 4-nitroanilides with HUK; details: other: tripeptide 4-nitroanilide as HUK substrate; pH 9.0; 37.0 °C
T5 construct: Human urinary kallikrein (hereinafter "HUK") was highly purified using a modification of published methods; from tissue; host or cells: human urine
From the text: as §4, §5

[6] = test system: T6, N=C(N)NCCC[C@H](NC(=O)[C@H](CC1CCCCC1)NC(=O)[C@H](N)c1ccccc1)C(=O)Nc1ccc([N+](=O)[O-])cc1; experiment: Km and Vmax of tripeptide 4-nitroanilides with HUK; details: other: tripeptide 4-nitroanilide as HUK substrate; pH 9.0; 37.0 °C
T6 construct: Human urinary kallikrein (hereinafter "HUK") was highly purified using a modification of published methods; from tissue; host or cells: human urine
From the text: as §4, §5

[7] = test system: T7, N=C(N)NCCC[C@H](NC(=O)[C@H](Cc1ccccc1)NC(=O)[C@H](N)C1CCCCC1)C(=O)Nc1ccc([N+](=O)[O-])cc1; experiment: Km and Vmax of tripeptide 4-nitroanilides with HUK; details: other: tripeptide 4-nitroanilide as HUK substrate; pH 9.0; 37.0 °C
T7 construct: Human urinary kallikrein (hereinafter "HUK") was highly purified using a modification of published methods; from tissue; host or cells: human urine
From the text: as §4, §5

[8] = test system: T8, NCCCC[C@H](NC(=O)[C@H](CC1CCCCC1)NC(=O)[C@H](N)C1CCCCC1)C(=O)Nc1ccc([N+](=O)[O-])cc1; experiment: Km and Vmax of tripeptide 4-nitroanilides with HUK; details: other: tripeptide 4-nitroanilide as HUK substrate; pH 9.0; 37.0 °C
T8 construct: Human urinary kallikrein (hereinafter "HUK") was highly purified using a modification of published methods; from tissue; host or cells: human urine
From the text: as §4, §5

[9] = test system: T9, NCCCC[C@H](NC(=O)[C@H](CC1CCCCC1)NC(=O)[C@H](N)c1ccccc1)C(=O)Nc1ccc([N+](=O)[O-])cc1; experiment: Km and Vmax of tripeptide 4-nitroanilides with HUK; details: other: tripeptide 4-nitroanilide as HUK substrate; pH 9.0; 37.0 °C
T9 construct: Human urinary kallikrein (hereinafter "HUK") was highly purified using a modification of published methods; from tissue; host or cells: human urine
From the text: as §4, §5

Human urinary kallikrein (Homo sapiens) was tested, and the Km [1] was 482 µM, the kcat [1] was 229 mol/mol/sec and the Km [2] was 37.6 µM. It also gave a Km [3] of 307 µM, a kcat [3] of 188 mol/mol/sec and a Km [4] of 1.33 µM. The Km [5] was 12.5 µM, the Km [6] was 1.96 µM and the Km [7] was 0.84 µM. For the same substance, the Km [8] was 46.6 µM and the Km [9] was 48.1 µM.
